Laboratory results: patent US20210122824A1 (ADAGENE, published 2021)

molecular target: T1, human PD-L1-Fc fusion protein (Sino Biological Cat #10084-H02H) (human, UniProt Q9NZQ7 19-239); test: BLI (ForteBio), PD-L1-Fc on AHC sensor, Fab in solution
T1 construct: bought; not shown: Fc part of the bought fusion
T1 sequence (Q9NZQ7 19-239 limits assumed): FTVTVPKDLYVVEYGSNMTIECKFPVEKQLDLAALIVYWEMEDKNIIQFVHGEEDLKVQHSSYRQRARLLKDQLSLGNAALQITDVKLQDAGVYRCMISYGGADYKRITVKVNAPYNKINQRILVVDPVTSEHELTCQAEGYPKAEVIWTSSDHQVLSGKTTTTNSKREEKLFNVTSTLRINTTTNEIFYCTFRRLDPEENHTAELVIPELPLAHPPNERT

Row | Binder | Kd [nM]
1 | B13002 (Fab, V domains shown, Fab from E. coli) VH: EVQLVESGGGLVQPGGSLRLSCAASGYTFSNYGIHWVRQAPGKGLEWIGWIYPSGGGTKYAQKFQGRVTISRDNSKNTLYLQLNSLRAEDTAVYYCAREGGGYGYALDYWGQGTLVTVSS VL: DIQLTQSPSSLSASVGDRVTITCRASQGVSSYLAWYQQKPGKAPKLLIYDASNLETGVPSRFSGSGSGTDFTLTISSLQPEDFATYYCQQYDAWPYTFGQGTKVEIKR | 0.251
2 | B14622 (Fab, V domains shown, Fab from E. coli) VH: EVQLVESGGGLVQPGGSLRLSCAASGYTFSNYGIHWVRQAPGKGLEWIGWIYPSGGGTKYAQKFQGRVTISRDNSKNTLYLQLNSLRAEDTAVYYCAREGGGYGYALDYWGQGTLVTVSS VL: DIQLTQSPSSLSASVGDRVTITCRASQSVDFYGKSFLDWYQQKPGKAPKLLIYDASNRATGIPSRFSGSGSGTDFTLTISSLQPEDFATYYCQQYDSWPYTFGQGTKVEIKR | 0.274
3 | B13005 (Fab, V domains shown, Fab from E. coli) VH: EVQLVESGGGLVQPGGSLRLSCAASGYTFSNYGIHWVRQAPGKGLEWIGWIYPSGGGTKYAQKFQGRVTISRDNSKNTLYLQLNSLRAEDTAVYYCAREGGGYGYALDYWGQGTLVTVSS VL: DIQLTQSPSSLSASVGDRVTITCRASQSVSSYLAWYQQKPGKAPKLLIYDASNLETGVPSRFSGSGSGTDFTLTISSLQPEDFATYYCQQYDAWPYTFGQGTKVEIKR | 0.346
4 | B14631 (Fab, V domains shown, Fab from E. coli) VH: EVQLVESGGGLVQPGGSLRLSCAASGYTFSNYGIHWVRQAPGKGLEWIGWIYPSGGGTKYAQKFQGRVTISRDNSKNTLYLQLNSLRAEDTAVYYCAREGGGYGYALDYWGQGTLVTVSS VL: DIQLTQSPSSLSASVGDRVTITCRASESVDFFGKSFLAWYQQKPGKAPKLLIYDASNLETGVPSRFSGSGSGTDFTLTISSLQPEDFATYYCQQYDHWPYTFGQGTKVEIKR | 0.183
5 | B14634 (Fab, V domains shown, Fab from E. coli) VH: EVQLVESGGGLVQPGGSLRLSCAASGYTFSNYGIHWVRQAPGKGLEWIGWIYPSGGGTKYAQKFQGRVTISRDNSKNTLYLQLNSLRAEDTAVYYCAREGGGYGYALDYWGQGTLVTVSS VL: DIQLTQSPSSLSASVGDRVTITCRASQSVSPYLAWYQQKPGKAPKLLIYDASNLETGVPSRFSGSGSGTDFTLTISSLQPEDFATYYCQQYDAWPYTFGQGTKVEIKR | 0.207
6 | B14033 (Fab, V domains shown, Fab from E. coli) VH: EVQLVESGGGLVQPGGSLRLSCAASGYTFSNYGIHWVRQAPGKGLEWIGWIYPSGGGTKYAQKFQGRVTISRDNSKNTLYLQLNSLRAEDTAVYYCAREGGGYGYALDYWGQGTLVTVSS VL: DIQLTQSPSSLSASVGDRVTITCRASQGIGSFLAWYQQKPGKAPKLLIYDASSLESGVPSRFSGSGSGTDFTLTISSLQPEDFATYYCQQYDYWPYTFGQGTKVEIKR | 0.875
7 | B14654 (Fab, V domains shown, Fab from E. coli) VH: EVQLVESGGGLVQPGGSLRLSCAASGYTFSNYGIHWVRQAPGKGLEWIGWIYPSGGGTKYAQKFQGRVTISRDNSKNTLYLQLNSLRAEDTAVYYCAREGGGYGYALDYWGQGTLVTVSS VL: DIQLTQSPSSLSASVGDRVTITCRASQSVSPYLAWYQQKPGKAPKLLIYDASNRATGIPSRFSGSGSGTDFTLTISSLQPEDFATYYCQQYDAWPYTFGQGTKVEIKR | 0.232
8 | B14642 (Fab, V domains shown, Fab from E. coli) VH: EVQLVESGGGLVQPGGSLRLSCAASGYTFSNYGIHWVRQAPGKGLEWIGWIYPSGGGTKYAQKFQGRVTISRDNSKNTLYLQLNSLRAEDTAVYYCAREGGGYGYALDYWGQGTLVTVSS VL: DIQLTQSPSSLSASVGDRVTITCRASQSVDFYGKSFLAWYQQKPGKAPKLLIYDASSLESGVPSRFSGSGSGTDFTLTISSLQPEDFATYYCQQYDAWPYTFGQGTKVEIKR | 0.189
9 | B14674 (Fab, V domains shown, Fab from E. coli) VH: EVQLVESGGGLVQPGGSLRLSCAASGYTFSNYGIHWVRQAPGKGLEWIGWIYPSGGGTKYAQKFQGRVTISRDNSKNTLYLQLNSLRAEDTAVYYCAREGGGYGYALDYWGQGTLVTVSS VL: DIQLTQSPSSLSASVGDRVTITCRASQSIEKWLAWYQQKPGKAPKLLIYDASSLESGVPSRFSGSGSGTDFTLTISSLQPEDFATYYCQQYDAWPYTFGQGTKVEIKR | 0.502
10 | B14652 (Fab, V domains shown, Fab from E. coli) VH: EVQLVESGGGLVQPGGSLRLSCAASGYTFSNYGIHWVRQAPGKGLEWIGWIYPSGGGTKYAQKFQGRVTISRDNSKNTLYLQLNSLRAEDTAVYYCAREGGGYGYALDYWGQGTLVTVSS VL: DIQLTQSPSSLSASVGDRVTITCRASQGVSPWLAWYQQKPGKAPKLLIYDASSLESGVPSRFSGSGSGTDFTLTISSLQPEDFATYYCQQYDAWPYTFGQGTKVEIKR | 0.294

The remaining lines, values ahead:

Row | Kd [nM] | Binder
11 | 0.3 | B13004 (Fab, V domains shown, Fab from E. coli) VH: EVQLVESGGGLVQPGGSLRLSCAASGYTFSNYGIHWVRQAPGKGLEWIGWIYPSGGGTKYAQKFQGRVTISRDNSKNTLYLQLNSLRAEDTAVYYCAREGGGYGYALDYWGQGTLVTVSS VL: DIQLTQSPSSLSASVGDRVTITCRASQGISPWLAWYQQKPGKAPKLLIYDASNRATGIPSRFSGSGSGTDFTLTISSLQPEDFATYYCQQYDSWPYTFGQGTKVEIKR
12 | 0.288 | B14617 (Fab, V domains shown, Fab from E. coli) VH: EVQLVESGGGLVQPGGSLRLSCAASGYTFSNYGIHWVRQAPGKGLEWIGWIYPSGGGTKYAQKFQGRVTISRDNSKNTLYLQLNSLRAEDTAVYYCAREGGGYGYALDYWGQGTLVTVSS VL: DIQLTQSPSSLSASVGDRVTITCRASESVDFFGKSFLAWYQQKPGKAPKLLIYDASSLESGVPSRFSGSGSGTDFTLTISSLQPEDFATYYCQQYDSWPYTFGQGTKVEIKR
13 | 0.182 | B14627 (Fab, V domains shown, Fab from E. coli) VH: EVQLVESGGGLVQPGGSLRLSCAASGYTFSNYGIHWVRQAPGKGLEWIGWIYPSGGGTKYAQKFQGRVTISRDNSKNTLYLQLNSLRAEDTAVYYCAREGGGYGYALDYWGQGTLVTVSS VL: DIQLTQSPSSLSASVGDRVTITCRASQSVSSWLAWYQQKPGKAPKLLIYDASSLESGVPSRFSGSGSGTDFTLTISSLQPEDFATYYCQQYDSWPYTFGQGTKVEIKR
14 | 0.322 | B14633 (Fab, V domains shown, Fab from E. coli) VH: EVQLVESGGGLVQPGGSLRLSCAASGYTFSNYGIHWVRQAPGKGLEWIGWIYPSGGGTKYAQKFQGRVTISRDNSKNTLYLQLNSLRAEDTAVYYCAREGGGYGYALDYWGQGTLVTVSS VL: DIQLTQSPSSLSASVGDRVTITCRASESVDFHGISFLAWYQQKPGKAPKLLIYDASNRATGIPSRFSGSGSGTDFTLTISSLQPEDFATYYCQQYDHWPYTFGQGTKVEIKR
15 | 0.228 | B14615 (Fab, V domains shown, Fab from E. coli) VH: EVQLVESGGGLVQPGGSLRLSCAASGYTFSNYGIHWVRQAPGKGLEWIGWIYPSGGGTKYAQKFQGRVTISRDNSKNTLYLQLNSLRAEDTAVYYCAREGGGYGYALDYWGQGTLVTVSS VL: DIQLTQSPSSLSASVGDRVTITCRASQSVDFYGKSFLAWYQQKPGKAPKLLIYDASSLESGVPSRFSGSGSGTDFTLTISSLQPEDFATYYCQQYDHWPYTFGQGTKVEIKR
16 | 0.353 | B14614 (Fab, V domains shown, Fab from E. coli) VH: EVQLVESGGGLVQPGGSLRLSCAASGYTFSNYGIHWVRQAPGKGLEWIGWIYPSGGGTKYAQKFQGRVTISRDNSKNTLYLQLNSLRAEDTAVYYCAREGGGYGYALDYWGQGTLVTVSS VL: DIQLTQSPSSLSASVGDRVTITCRASESVDFYGKSFLDWYQQKPGKAPKLLIYDASNRATGIPSRFSGSGSGTDFTLTISSLQPEDFATYYCQQYDSWPYTFGQGTKVEIKR
